In PMC7036004:
Like-named read-outs stand apart in the source and are kept apart here.

T1: ΔRBRi-CTCF (3xFLAG-Halo-ΔRBRi-CTCF-6xHis) (mouse, UniProt Q61164 1-575+612-736, internal_change)
T1 sequence: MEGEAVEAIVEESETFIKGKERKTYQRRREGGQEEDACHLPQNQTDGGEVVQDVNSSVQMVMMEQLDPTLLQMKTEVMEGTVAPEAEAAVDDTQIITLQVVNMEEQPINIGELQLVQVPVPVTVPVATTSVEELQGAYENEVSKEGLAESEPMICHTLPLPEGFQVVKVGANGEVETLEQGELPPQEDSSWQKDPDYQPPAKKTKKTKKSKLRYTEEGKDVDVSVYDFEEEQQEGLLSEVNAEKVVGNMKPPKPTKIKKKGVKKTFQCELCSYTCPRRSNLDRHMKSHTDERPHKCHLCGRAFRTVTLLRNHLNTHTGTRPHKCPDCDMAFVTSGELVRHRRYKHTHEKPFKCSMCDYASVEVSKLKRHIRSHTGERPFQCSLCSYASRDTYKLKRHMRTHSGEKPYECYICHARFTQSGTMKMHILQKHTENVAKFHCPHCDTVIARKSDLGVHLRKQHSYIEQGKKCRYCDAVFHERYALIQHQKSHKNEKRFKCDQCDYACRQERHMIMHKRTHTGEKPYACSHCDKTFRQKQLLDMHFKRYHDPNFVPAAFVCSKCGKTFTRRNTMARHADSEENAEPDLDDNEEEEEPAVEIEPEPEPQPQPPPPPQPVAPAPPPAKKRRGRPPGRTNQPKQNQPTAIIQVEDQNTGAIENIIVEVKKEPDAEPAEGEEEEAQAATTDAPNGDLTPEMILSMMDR

T2: wt-CTCF (3xFLAG-Halo-wt-CTCF-6xHis) (mouse, UniProt Q61164 1-736)
T2 sequence: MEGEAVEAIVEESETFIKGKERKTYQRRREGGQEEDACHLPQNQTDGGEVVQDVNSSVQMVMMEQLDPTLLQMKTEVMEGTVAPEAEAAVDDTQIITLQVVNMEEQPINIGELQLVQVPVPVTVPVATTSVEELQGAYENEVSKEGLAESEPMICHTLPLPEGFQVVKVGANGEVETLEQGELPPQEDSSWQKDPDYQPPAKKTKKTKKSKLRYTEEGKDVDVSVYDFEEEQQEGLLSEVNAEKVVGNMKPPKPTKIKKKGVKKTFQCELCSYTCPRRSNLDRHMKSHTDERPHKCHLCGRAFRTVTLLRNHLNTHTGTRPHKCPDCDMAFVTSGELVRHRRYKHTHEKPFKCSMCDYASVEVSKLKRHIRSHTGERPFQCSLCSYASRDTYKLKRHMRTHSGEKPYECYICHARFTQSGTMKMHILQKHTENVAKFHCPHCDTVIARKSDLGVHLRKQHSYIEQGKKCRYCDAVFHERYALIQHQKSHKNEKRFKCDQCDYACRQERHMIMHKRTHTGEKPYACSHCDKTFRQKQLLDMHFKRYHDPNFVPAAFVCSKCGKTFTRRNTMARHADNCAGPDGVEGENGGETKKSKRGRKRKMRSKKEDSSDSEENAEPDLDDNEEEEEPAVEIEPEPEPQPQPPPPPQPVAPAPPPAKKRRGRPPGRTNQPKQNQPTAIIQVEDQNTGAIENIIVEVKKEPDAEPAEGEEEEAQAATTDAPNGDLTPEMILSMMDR

B1: Core CTCF binding site duplex (dsDNA)
DNA 1: AGGACCAGCAGGGGGCGCA
DNA 2: TGCGCCCCCTGCTGGTCCT
B2: Mutated core CTCF binding site duplex (dsDNA)
DNA 1: AGGATTCTAATTTCGATCA
DNA 2: TGATCGAAATTAGAATCCT

How the values were obtained:
Experiment in all cases: fluorescence polarization
[1] = target: T1, ΔRBRi-CTCF …
[2] = target: T2, wt-CTCF (3xFLAG-Halo-wt-CTCF-6xHis)
[3] = target: T2, wt-CTCF (3xFLAG-Halo-wt-CTCF-6xHis); remark: listed apart in the source
[4] = target: T1, ΔRBRi-CTCF …; remark: listed apart in the source

Binder	binding result [1]	binding result [2]	binding result [3]	binding result [4]
B1	binds	binds	–	–
B2	–	–	no binding	no binding
